No end group written: not given here. *: point of attachment. Lip = lipoyl, O=C(CCCC[C@@H]1CCSS1)*
Tests used:
[1] = target: T1, PDZ_(DVL2) V334E cleft mutant (NMR sample) (human, UniProt O14641 265-361, V334E); assay: NMR titration; 1H-15N fHSQC of 100 μM 15N-labelled PDZ_(DVL2) alone or with 150 μM (Daple, Girdin) or 300 μM (FZD4) Lip-tagged PBM peptide; 298 K; chemical shift perturbations and line broadening; conditions: both partners purified
T1 construct: DVL2 (Dishevelled-2), human, PDZ domain, amino acids 265-361, V334E; source: E. coli BL21-CodonPlus(DE3)-RIL, purified (Ni-NTA, SEC)
T1 sequence (looked up): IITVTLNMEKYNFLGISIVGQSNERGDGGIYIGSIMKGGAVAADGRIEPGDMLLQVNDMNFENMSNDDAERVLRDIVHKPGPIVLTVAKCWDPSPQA

[2] = target: T2, Lip-PDZ_(DVL2) (human, UniProt O14641 265-361); assay: ITC; 40 μM Lip-PDZ_(DVL2) in the cell, 1.00 mM Lip-PBM_(Daple) or 1.33 mM Lip-PBM_(FZD4) in the syringe; 25°C; 25 mM sodium phosphate pH 6.7, 150 mM NaCl; one set of binding sites; apparent KD; conditions: both partners purified
T2 construct: DVL2 (Dishevelled-2), human, PDZ domain, amino acids 265-361; also called His6x-Lip-PDZ; source: E. coli BL21-CodonPlus(DE3)-RIL, purified (Ni-NTA, SEC); not shown: Lipoyl (Lip), N-terminal, kept
T2 sequence (looked up): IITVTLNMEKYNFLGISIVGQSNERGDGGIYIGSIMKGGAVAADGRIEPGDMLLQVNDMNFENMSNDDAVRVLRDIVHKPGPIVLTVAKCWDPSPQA

B1: Lip-PBM_(Daple) (C-terminal eight residues of Daple tagged with Lipoyl) (peptide, UniProt Q9P219 2021-2028, looked up)
peptide: Lip-VWYEYGCV
notes: Daple, C-terminal eight residues; the last residue is printed as Val2028, so 2021 is worked out; printed residues: Trp2022, Glu2024, Tyr2025, Gly2026, Cys2027, Val2028; source: E. coli BL21-CodonPlus(DE3)-RIL, purified (Ni-NTA, SEC); not shown: Lipoyl (Lip), N-terminal, kept
For B1, the binding result [1] was “binds” and the Kd [2] was 9.1 µM.
